Results: patent US20060159654A1 (ROCKEFELLER UNIVERSITY, published 2006)

Tests used:
[1] = target: murine TRANCE receptor (TRANCE-R) on the cell surface (murine) (UniProt O35305); experiment: cell-based or functional assay
[2] = target: T1, murine TRANCE (mTRANCE) on the cell surface (murine, UniProt O35235 1-316); experiment: flow cytometry on transfected 293T cells and on activated murine T cells, TR-Fc at 5 mg/ml as printed, FITC anti-human Fc
T1 construct: also called RANK-L
T1 sequence: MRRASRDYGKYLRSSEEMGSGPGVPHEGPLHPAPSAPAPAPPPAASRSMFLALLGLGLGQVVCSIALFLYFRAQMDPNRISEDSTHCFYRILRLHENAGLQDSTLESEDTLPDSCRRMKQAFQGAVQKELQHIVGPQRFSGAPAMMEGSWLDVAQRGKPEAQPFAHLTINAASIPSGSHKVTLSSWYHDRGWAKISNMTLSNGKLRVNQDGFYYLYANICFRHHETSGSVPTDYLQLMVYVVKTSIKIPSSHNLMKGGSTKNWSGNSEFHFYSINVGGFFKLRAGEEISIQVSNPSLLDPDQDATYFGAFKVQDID
Procedure: Determination of the specificity of hCD8-TRANCE and TR-Fc.
Flow cytometry. The expression of TRANCE on activated CD4+ and CD8⁺ T-cells was assessed using the TR-Fc fusion protein at 5 mg/ml followed by FITC-conjugated goat anti-human IgG (Fc specific) F(ab′)₂ fragment (Jackson. Laboratories, West Grove, Pa.). The negative control consisted of normal hIgG1 (Sigma, St Louis, […].). T-cell and thymocyte subsets were sorted using a FACS “VANTAGE”, (Becton Dickinson, Mountain View, Calif.).

“FLAG-tagged soluble form of TRANCE (TRANCE-Ecto) (from UniProt O35235 72-316) (ligand)” showed a JNK activation (fold induction over unstimulated), LNTC [1] of 2 fold, a JNK activation (fold induction over unstimulated), T cell hybridomas [1] of 2 fold and a JNK activation (fold induction over unstimulated), thymocytes [1] of 3 fold.

Work on “human CD8-TRANCE recombinant molecule (from UniProt P01732 22-182) (ligand)” yielded a JNK activity in thymocytes of control littermates [1] of 2.5 fold.

B1: TRANCE-R-Fc recombinant molecule (Fc fusion, murine, UniProt O35305 31-214, looked up)
chain: VTPPCTQERHYEHLGRCCSRCEPGKYLSSKCTPTSDSVCLPCGPDEYLDTWNEEDKCLLHKVCDAGKALVAVDPGNHTAPRRCACTAGYHWNSDCECCRRNTECAPGFGAQHPLQLNKDTVCTPCLLGFFSDVFSSTDKCKPWTNCTLLGKLEAHQGTTESDVVCSSSMTLRRPPKEAQAYLPS
notes: extracellular domain; Made in a baculovirus system and purified on protein A sepharose; also called TR-Fc; TR.R-Fc; not shown: Fc portion of human IgG1, fused to the C-terminal end of the receptor's extracellular domain
B1: binds [2].
